Assay in all cases: fluorescence polarisation; 25 °C; unlabeled Rb^P titrated against 1.5 nM TMR-E2F1^TD or 7.5 nM TMR-E7^LxCxE; 25 mM Tris pH 8.0, 200 mM NaCl, 1 mM DTT, 0.1% Tween-20; 2 min incubation; quadratic fit; apparent Kd for the variants, Kd for WT
Common to all, as to settings: both partners purified
For orientation: In fluorescence polarisation assays a small probe gives low polarisation when free and higher when bound to something large.

Assay [1] addresses T1, Rb^P D697E (human, UniProt P06400 380-788, D697E).
T1 construct: also called variant 62
T1 sequence (looked up): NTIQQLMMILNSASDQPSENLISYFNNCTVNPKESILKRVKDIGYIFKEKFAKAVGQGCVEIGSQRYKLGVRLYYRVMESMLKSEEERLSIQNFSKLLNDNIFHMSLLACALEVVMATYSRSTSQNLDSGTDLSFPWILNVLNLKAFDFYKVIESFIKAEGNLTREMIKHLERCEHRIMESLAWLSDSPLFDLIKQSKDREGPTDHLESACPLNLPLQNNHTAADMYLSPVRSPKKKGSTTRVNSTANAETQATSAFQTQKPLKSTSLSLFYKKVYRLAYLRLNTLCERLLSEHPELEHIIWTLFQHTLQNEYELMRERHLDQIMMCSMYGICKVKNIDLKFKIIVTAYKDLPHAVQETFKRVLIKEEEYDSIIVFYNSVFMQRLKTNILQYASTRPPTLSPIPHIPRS

In assay [2] the target is T2, Rb^P Q504E (human, UniProt P06400 380-788, Q504E).
T2 construct: also called variant 19
T2 sequence (looked up): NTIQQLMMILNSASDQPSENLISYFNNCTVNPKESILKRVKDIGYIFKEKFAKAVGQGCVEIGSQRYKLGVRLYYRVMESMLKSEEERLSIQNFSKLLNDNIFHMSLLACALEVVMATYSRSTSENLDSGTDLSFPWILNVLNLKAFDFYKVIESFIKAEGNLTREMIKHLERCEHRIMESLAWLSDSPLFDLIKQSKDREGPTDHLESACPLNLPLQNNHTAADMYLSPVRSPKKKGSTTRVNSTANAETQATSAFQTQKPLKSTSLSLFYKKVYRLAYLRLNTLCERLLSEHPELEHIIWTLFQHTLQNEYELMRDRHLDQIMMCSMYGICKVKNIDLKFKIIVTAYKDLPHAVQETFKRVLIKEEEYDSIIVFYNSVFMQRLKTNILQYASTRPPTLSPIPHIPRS

The target of assay [3] is T3, Rb^P K530I (human, UniProt P06400 380-788, K530I).
T3 construct: also called variant 21
T3 sequence (looked up): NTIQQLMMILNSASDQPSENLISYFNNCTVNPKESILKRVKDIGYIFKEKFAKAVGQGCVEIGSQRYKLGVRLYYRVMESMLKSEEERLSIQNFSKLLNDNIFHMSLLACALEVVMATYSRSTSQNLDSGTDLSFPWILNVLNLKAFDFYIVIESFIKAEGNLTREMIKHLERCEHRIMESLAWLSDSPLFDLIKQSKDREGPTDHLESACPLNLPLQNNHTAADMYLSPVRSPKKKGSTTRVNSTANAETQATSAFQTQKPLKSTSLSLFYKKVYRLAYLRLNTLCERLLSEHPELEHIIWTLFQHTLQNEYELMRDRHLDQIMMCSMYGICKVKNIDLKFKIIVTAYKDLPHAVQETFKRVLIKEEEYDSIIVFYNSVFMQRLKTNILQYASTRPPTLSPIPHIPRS

The target of assay [4] is T4, Rb^P H686Y (human, UniProt P06400 380-788, H686Y).
T4 construct: also called variant 58
T4 sequence (looked up): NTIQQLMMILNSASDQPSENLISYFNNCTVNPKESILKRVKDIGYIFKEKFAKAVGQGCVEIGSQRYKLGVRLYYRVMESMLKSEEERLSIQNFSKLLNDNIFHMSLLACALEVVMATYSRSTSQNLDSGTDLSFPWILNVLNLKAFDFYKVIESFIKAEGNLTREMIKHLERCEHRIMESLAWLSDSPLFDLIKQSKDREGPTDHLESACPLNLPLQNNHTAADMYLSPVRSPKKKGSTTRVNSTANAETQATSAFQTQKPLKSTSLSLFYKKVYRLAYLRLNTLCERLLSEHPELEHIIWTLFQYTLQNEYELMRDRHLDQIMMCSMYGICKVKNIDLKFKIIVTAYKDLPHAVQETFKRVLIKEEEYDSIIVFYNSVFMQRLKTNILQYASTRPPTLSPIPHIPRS

Assay [5] concerns the target T5, Rb^P V654L (human, UniProt P06400 380-788, V654L).
T5 construct: also called variant 47
T5 sequence (looked up): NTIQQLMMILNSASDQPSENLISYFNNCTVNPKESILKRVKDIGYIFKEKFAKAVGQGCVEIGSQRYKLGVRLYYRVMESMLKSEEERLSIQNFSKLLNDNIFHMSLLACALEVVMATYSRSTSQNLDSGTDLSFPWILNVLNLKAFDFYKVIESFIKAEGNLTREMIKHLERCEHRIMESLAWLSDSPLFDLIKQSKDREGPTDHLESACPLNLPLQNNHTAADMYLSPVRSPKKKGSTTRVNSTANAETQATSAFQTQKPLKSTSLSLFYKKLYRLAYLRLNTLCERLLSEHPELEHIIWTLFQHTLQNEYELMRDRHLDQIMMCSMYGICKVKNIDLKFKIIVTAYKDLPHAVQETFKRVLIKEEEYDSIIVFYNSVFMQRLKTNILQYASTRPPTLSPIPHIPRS

No end group written: not given here. TMR = tetramethyl rhodamine dye

B1: TMR-E2F1^TD, peptide of the E2F1 transactivation domain (peptide)
peptide: {TMR}-GEGIRDLFDCDFGDLTPLD
notes: also called E2F^TD; source: synthetic peptide, bought: GenScript
Consider B1, for which the Kd in assay [1] was found to be 29 nM; in assay [2] it was 18 nM; in assay [3] it was 945 nM; in assay [4], 20 nM; in assay [5] it was 18 nM.

B2: TMR-E7^LxCxE, LxCxE peptide of the E7 oncoprotein from HPV (peptide)
peptide: DLYCYEQLN
modifications: also: TMR label, position not given here
notes: source: synthetic peptide, bought: GenScript
Consider B2, for which the Kd is 9 nM in assay [1]; 5 nM in assay [2]; 8 nM in assay [3]; 5 nM in assay [4]; 11 nM in assay [5].

The values are drawn from PMC11931385, “Structural and functional analysis of cancer-associated missense variants in the retinoblastoma protein pocket domain” (The Journal of Biological Chemistry, 2025).
